How the values were obtained:
whole blood sample = assay: TEG clot strength (MA) of whole blood samples containing abciximab; format: cell-based, human; conditions: patient sample 29494
Method: The TEG Hemostasis Analyzer provides quantitative and qualitative measurements of the physical properties of a clot (Samara et al., Thromb. Res. 115:89-94, 2005). In the present example, the maximum amplitude (MA) and the coagulation time (R) were measured for the thrombin generated clot sample. MA is an indicator of the viscoelasticity of clot formation or clot strength and is dependent on platelet aggregation and fibrin formation and polymerization. R is the period of time of latency until initial fibrin formation and has been correlated with the velocity of thrombin generation.
The clotting of a whole blood sample was perturbed using the antithrombotic agent abciximab (ReoPro®). Abciximab is the Fab fragment of a human-murine monoclonal antibody that binds to the Ith/IIIa receptor of human platelets and inhibits platelet aggregation. Abciximab serves to inhibit the retraction of a clot during the clotting process.
Samples containing abciximab were prepared according to the following procedure and referenced in the application and Figures by a number corresponding to the concentration of abciximab in units of μg/mL.
1. Blood was drawn from normal donors into six citrate tubes. Normal donors must not have taken aspirin or any anti-platelet drug in the past two weeks.
2. The six tubes of blood were pooled and mixed gently by inversion eight to ten times. Samples were used within two hours of collection.
3. A abciximab solution (10 mg/5 mL) was diluted at a ratio of 1:4 using saline as a diluent to form “solution 1.”
4. The blood was spiked with solution 1 and saline according to Table 5
5. […]
In a second experiment, five aliquots of patient sample 29494 were prepared with different concentrations (0, 2, 4, 8, and 0 μg/mL) of abciximab prior to initiation of the clotting process. The T2 relaxations times for the samples were measured in series, with each set of measurements lasting approximately 50 min. […] The corresponding TEG-determined MA values for these samples was 60.7, 61.4, 30.4, and 22.0, respectively.

human platelets = assay: T2 relaxation 3D plots of clotting whole blood containing abciximab; format: cell-based
Method: T2 relaxation rate data was collected from CK blood samples drawn from healthy patients. For each sample, a series of T2 decay curves were measured over a period of 50 minutes. The decay curves were each processed using an inverse Laplace transform (ILT CONTIN) to provide an array of curves showing T2 intensity as a function of T2 time. […] FIG. 20 illustrates the 3D data sets for patient samples 29328 and 29350 collected on a Bruker minispec. […] At a time between 5 minutes and 30 minutes, the single water population diverged into two significant water populations. These two water populations correspond to the two components of the clot, i.e., the retracted clot and the serum surrounding the retracted clot. […] For some samples these two peaks were not entirely resolved. […]
In a first experiment, four aliquots of patient sample 29488 were prepared with different concentrations of abciximab (0, 2, 4, and 8 μg/mL) prior to initiation of the clotting process. The T2 relaxation times for the four samples were measuring over the course of clot formation and the corresponding 3D plots were determined using the technique described in Example 13. […] This physical change is evidenced and quantified in the corresponding 3D plots (FIG. 21), showing fast exchange of water within the uniform sample at the highest concentration of abciximab.

fibrin = assay: Simulated fibrinolysis in healthy patient blood, T2Coagulation T2B versus TEG LY30; format: cell-based, human; conditions: kaolin runs
Method: Five different healthy patient samples were used to test whether T2Coagulation was sensitive to fibrinolysis. Addition of tissue plasminogen activator (TPA) was used to simulate fibrinolysis by adding it at two levels to healthy patient blood. TPA cleaves fibrin as it forms. It was observed that fibrinolysis can be detected within 10 minutes on T2Coagulation, which is less than half the time required for detection on TEG. For all five patients there was a clear difference between healthy and fibrinolytic samples.
There are several potential features that can be used for this correlation. Three that were investigated were the difference between (i) the minimum and maximum T2B values (FIG. 13), (ii) the average of the T2B values over the final 25 minutes of the T2B curves, and (iii) the T2B values at 10 minutes. All had correlations with R^2 values between 0.72 and 0.79. The correlation plots show a higher sensitivity of T2Coagulation for fibrinolysis than TEG. This can be seen by the groupings for the different levels of fibrinolysis in FIG. 13. The healthy patient samples are circled with the solid line. […] The T2Coagulation T2B term can be detected in as little as 10 minutes, which is much faster than the TEG LY30 term can be detected, indicating the utility of the T2Coagulation signal for more rapid measurement of fibrinolysis.

whole blood fibrinolysis = assay: T2MR whole blood fibrinolysis with spiked TPA; format: cell-based, human; conditions: TPA 100 U/mL, blood from a healthy donor
Method: The T2MR surface is also sensitive to whole blood fibrinolysis. To assess this, healthy donor samples were spiked with tissue plasminogen activator (TPA).
TPA was added at 100 U/mL to blood from a healthy donor. In the absence of TPA (see FIG. 27a) two stable peaks form at the expected clotting time. With 100 U/mL of TPA (see FIG. 27b) the clot forms at the expected time, but proves to be unstable after 20-30 minutes. Both the instability and the distance between the final T2 peaks indicate sensitivity to fibrinolysis induced by the presence of TPA.
The T2MR effect on fibrinolysis was expressed in AU values (arbitrary units; see FIG. 27c) obtained by calculating the difference between the maximum and minimum T2 value observed for the clot signal (or T2B) in the T2 time curve.
Fibrinolysis was monitored by T2 magnetic resonance (T2MR) in five patient blood samples with and without the addition of TPA (100 U/mL) (FIG. 27c). […] All other samples required addition of TPA to induce fibrinolysis, as confirmed by the reference method.

B1: abciximab (antibody, chains of the INN, looked up, V domains shown)
VH: EVQLQQSGTVLARPGASVKMSCEASGYTFTNYWMHWVKQRPGQGLEWIGAIYPGNSDTSYIQKFKGKAKLTAVTSTTSVYMELSSLTNEDSAVYYCTLYDGYYVFAYWGQGTLVTVSA
VL: EIVLTQSPVTLSVTPGDSVSLSCRASRDISNNLHWFQQTSHESPRLLIKYASQSMSGIPSRFSGSGSGTDFTLSINSVETEDFGMYFCQQTNSWPYTFGGGTKLEIK
modifications: Fab
TEG-determined MA value (whole blood sample; abciximab 2 μg/mL): 61.4 | TEG-determined MA value (whole blood sample; abciximab 4 μg/mL): 30.4 | TEG-determined MA value (whole blood sample; abciximab 8 μg/mL): 22.0 | effect on clot associated T2 signal intensity (human platelets; 8 μg/mL Reopro, T2reader, versus native sample): reduces the signal intensity of the clot associated signal | phases (retracted clot and serum water populations) visible within the clot (human platelets; highest concentration of abciximab (8 μg/mL), patient sample 29488, Bruker minispec): no longer two phases visible within the clot

B2: Cathflo®: recombinant alteplase manufactured by Genentech (protein, UniProt P00750 36-562, looked up)
Tissue-type plasminogen …: SYQVICRDEKTQMIYQQHQSWLRPVLRSNRVEYCWCNSGRAQCHSVPVKSCSEPRCFNGGTCQQALYFSDFVCQCPEGFAGKCCEIDTRATCYEDQGISYRGTWSTAESGAECTNWNSSALAQKPYSGRRPDAIRLGLGNHNYCRNPDRDSKPWCYVFKAGKYSSEFCSTPACSEGNSDCYFGNGSAYRGTHSLTESGASCLPWNSMILIGKVYTAQNPSAQALGLGKHNYCRNPDGDAKPWCHVLKNRRLTWEYCDVPSCSTCGLRQYSQPQFRIKGGLFADIASHPWQAAIFAKHRRSPGERFLCGGILISSCWILSAAHCFQERFPPHHLTVILGRTYRVVPGEEEQKFEVEKYIVHKEFDDDTYDNDIALLQLKSDSSRCAQESSVVRTVCLPPADLQLPDWTECELSGYGKHEALSPFYSERLKEAHVRLYPSSRCTSQHLLNRTVTDNMLCAGDTRSGGPQANLHDACQGDSGGPLVCLNDGRMTLVGIISWGLGCGQKDVPGVYTKVTNYLDWIRDNMRP
modifications: alteplase
notes: recombinant alteplase manufactured by Genentech
degree of fibrinolysis of samples (fibrin; 60 ng/mL Cathflo in healthy patient blood): partially fibrinolytic | degree of fibrinolysis of samples (fibrin; 118 ng/mL Cathflo in healthy patient blood): fully fibrinolytic

B3: tissue plasminogen activator (protein, UniProt P00750 36-562, looked up)
Tissue-type plasminogen …: SYQVICRDEKTQMIYQQHQSWLRPVLRSNRVEYCWCNSGRAQCHSVPVKSCSEPRCFNGGTCQQALYFSDFVCQCPEGFAGKCCEIDTRATCYEDQGISYRGTWSTAESGAECTNWNSSALAQKPYSGRRPDAIRLGLGNHNYCRNPDRDSKPWCYVFKAGKYSSEFCSTPACSEGNSDCYFGNGSAYRGTHSLTESGASCLPWNSMILIGKVYTAQNPSAQALGLGKHNYCRNPDGDAKPWCHVLKNRRLTWEYCDVPSCSTCGLRQYSQPQFRIKGGLFADIASHPWQAAIFAKHRRSPGERFLCGGILISSCWILSAAHCFQERFPPHHLTVILGRTYRVVPGEEEQKFEVEKYIVHKEFDDDTYDNDIALLQLKSDSSRCAQESSVVRTVCLPPADLQLPDWTECELSGYGKHEALSPFYSERLKEAHVRLYPSSRCTSQHLLNRTVTDNMLCAGDTRSGGPQANLHDACQGDSGGPLVCLNDGRMTLVGIISWGLGCGQKDVPGVYTKVTNYLDWIRDNMRP
notes: cleaves fibrin as it forms
time after which the clot proves to be unstable (whole blood fibrinolysis): 20 to 30 min

Reference: patent publication US9599627B2, “NMR methods for monitoring blood clot formation” (T2 Biosystems, Inc., priority 2011, dated 2017)
